Results taken from patent US8703503B2, “Methods and compositions for inhibition of BCL6 repression” (Albert Einstein School of Medicine of Yeshiva University, priority 2003, dated 2014).
Entries after “also recorded” stand apart in the source; their conditions may differ. Residues, ends and D or L forms follow the SMILES beside them. No end group written: not given here.

How the values were obtained:
[1] = target: T1, BCL6 BTB domain (Homo sapiens, UniProt P41182, C67R/C84N/C8Q); assay: Electrophoretic mobility shift assay (EMSA) for complex formation of BCoR fragments with BCL6 BTB domain; assay type: binding; design: which is BCL6 residues 5-129, with the point mutations C8Q, C67R and C84N; made in house; details: non-denaturing PAGE
Procedure: Further mapping of the minimal BCoR fragment was done with a version of an electrophoretic mobility shift assay (EMSA). Purified BCL6 BTB domain was mixed with a BCoR fragment (either as a fusion protein or as a purified peptide) and incubated at room temperature in a non-denaturing buffer. The mixture was analyzed by non-denaturing polyacrylamide gel electrophoresis (PAGE) and protein bands were visualized with either Coomassie blue staining or silver staining. A change in the position of the BCL6 BTB domain band was indicative of complex formation. […] These two sequences correspond to a S507A / W509A / V511A BCoR triple mutation, and to a S507W / W509S BCoR double mutation, respectively.

[2] = target: T1, BCL6 BTB domain; assay: Surface plasmon resonance (SPR) binding of BCL6 BTB domain to immobilized corepressor peptides; design: which is BCL6 residues 5-129, with the point mutations C8Q, C67R and C84N; made in house; details: for relative binding affinity by SPR: relative to the longer SMRT peptide(s)
Procedure: Protein Expression and Purification. […] BCL6 BTB domain protein was produced by thrombin digestion of the thioredoxin fusion proteins, and repurified by size-exclusion chromatography in 500 mM NaC1, 20 mM Tris-HCl, 10% glycerol, 1.0 mM TCEP, pH 8.5.
SPR: Biotinylated corepressor peptides were coupled to streptavidin-coated sensor chips to a density of 800 response units (Biacore 2000). BCL6 or PLZF BTB protein was serially diluted in running buffer (10 mM Hepes, pH 7.4, 150 mM NaCl, 3 mM EDTA, 0.005% v/v surfactant P20) and injected at a flow rate of 5 μL/min.

[3] = target: T1, BCL6 BTB domain; assay: biochemical
Procedure: Protein Expression and Purification. […] BCL6 BTB domain protein was produced by thrombin digestion of the thioredoxin fusion proteins, and repurified by size-exclusion chromatography in 500 mM NaC1, 20 mM Tris-HCl, 10% glycerol, 1.0 mM TCEP, pH 8.5. Corepressor fusion proteins were biotinylated with BirA and digested with TEV protease to yield peptides for SPR analysis with a biotinylated lysine eight amino acids N-terminal to the first corepressor residue, or digested with thrombin to produce peptides with no additional N-terminal residues for co-crystallization or ITC.
ITC: The binding of SMRT^1414-1430 to BTB domain protein was analyzed on a Microcal VP-ITC instrument at 25° C. All components were in 150 mM NaCl, 20 mM Hepes pH 7.7, 1 mM TCEP. The experiment consisted of thirty 6.93 μL injections of a solution containing 480 μM SMRT^1414-1430 into a sample cell containing 1.8 mL of either BCL6 BTB (23.0 μM) or PLZF BTB (38.5 μM). To correct for dilution and mixing effects, a series of control injections was carried out, in which the heat of dilution was measured in blank titrations by injecting the peptide into the buffer.

[4] = target: T2, BCL6 BTB domain H116A mutant (Homo sapiens, UniProt P41182, C67R/C84N/C8Q/H116A); assay: Co-purification assay with mutant BCL6 BTB domain H116A; assay type: binding
T2 construct: which is BCL6 residues 5-129, with the point mutations C8Q, C67R and C84N; thioredoxin-6His-TEV site-BirA motif-thrombin site fusion (N, cleaved yes); made in house; host or cells: E. coli
Procedure: (§1) In vitro binding assays. Co-purification: Equimolar amounts of His-tagged thioredoxin-corepressor fusion protein and BCL6 BTB or PLZF BTB domain were combined, incubated for at least two hours, and loaded onto a Ni-NTA spin column (Qiagen). The column was washed three times with 600 μl of wash buffer (200 mM NaCl, 20 mM Tris-HCl pH 8.0, 10 mM imidazole), and bound protein was released with 400 μl of elution buffer (200 mM NaCl, 20 mM Tris-HCl pH 8.0, 300 mM imidazole). Samples were analyzed on 10-20% SDS-PAGE gels and stained with Coomassie blue.

[5] = target: T3, BCL6 BTB domain N21K mutant (Homo sapiens, UniProt P41182, C67R/C84N/C8Q/N21K); assay: Co-purification assay with mutant BCL6 BTB domain N21K; assay type: binding
T3 construct: which is BCL6 residues 5-129, with the point mutations C8Q, C67R and C84N; thioredoxin-6His-TEV site-BirA motif-thrombin site fusion (N, cleaved yes); made in house; host or cells: E. coli
Procedure: as §1

[6] = target: T1, BCL6 BTB domain; assay: Co-purification assay (Ni-NTA) of His-tagged corepressor fusion proteins with BTB domain; assay type: binding; design: which is BCL6 residues 5-129, with the point mutations C8Q, C67R and C84N; made in house
Procedure: as §1
The initial BCL6 interacting fragment identified in the yeast two-hybrid screen consisted of residues 112-753 of BCoR (Huynh et al., 2000).

In the case of “BCoR 506-522: thioredoxin-6his fusion protein with BCoR residues 506-522 (PSSWVVPGPSPNEENNG; also: thioredoxin-6His fusion protein)”, the “complex formation with the BCL6 BTB domain (EMSA band shift)” value (“complex formation … (EMSA band shift)” for short) [1] is reported as “do not interact”.

RSEIISTAPSSWVVPGP [BCoR 498-514] was tested, and the “complex formation … (EMSA band shift)” value [1] was “complexes were present”.

In the case of “N-CoR^1351-1383: N-CoR corepressor peptide, residues 1351-1383, equivalent to the SMRT fragment (IHEIPRQDILTQESRKTPEVVQSTRPIIEGSIS; UniProt O75376 1351-1383, looked up, fragment)”, the “fold stronger affinity of the BTB domain relative to the longer SMRT peptide” value ([2]; SPR, ratio of dissociation constants) is reported as 2.5 fold.

With “SMRT^1417-1441: N-terminally truncated SMRT corepressor peptide, residues 1417-1441 (TVKEAGRSIHEIPREELRHTPELPL; not fully specified)” the “relative binding affinity by SPR” value [2] was “slightly weaker binding”.

With “RSEIISTAPASAVAPGP [BCoR peptide with S507A / W509A / V511A triple mutation]” the “complex formation … (EMSA band shift)” value [1] was “did not result in a shift”.

In the case of “BCoR 494-510: thioredoxin-6his fusion protein with BCoR residues 494-510 (CAIYRSEIISTAPSSWV; also: thioredoxin-6His fusion protein)”, the “complex formation … (EMSA band shift)” value [1] is reported as “do not interact”.

For CC[C@H](C)[C@H](NC(=O)[C@H](CO)NC(=O)[C@H](CCCNC(=N)N)NC(=O)CNC(=O)[C@H](C)NC(=O)[C@H](CCC(=O)O)NC(=O)[C@H](CCCCN)NC(=O)[C@@H](NC(=O)[C@@H](NC(=O)[C@H](C)NC(=O)[C@@H](NC(=O)[C@@H](N)CC(C)C)C(C)C)[C@@H](C)O)C(C)C)C(=O)N[C@@H](Cc1cnc[nH]1)C(=O)N[C@@H](CCC(=O)O)C(=O)N[C@H](C(=O)N1CCC[C@H]1C(=O)N[C@@H](CCCNC(=N)N)C(=O)O)[C@@H](C)CC [SMRT^1414-1430, lvatvkeagrsiheipr] (H-LVATVKEAGRSIHEIPR-OH), the Kd [3] was 11.4 ± 1 µM.

With “BCoR 494-514: thioredoxin-6his fusion protein with BCoR residues 494-514 (CAIYRSEIISTAPSSWVVPGP; also: thioredoxin-6His fusion protein)” the “complex formation … (EMSA band shift)” value [1] was “complexes were present”.

With “CAIYRSEIISTAPSSWVVPGPSPNE (not fully specified) [BCoR 494-518, thioredoxin-6his fusion protein with BCoR residues 494-518]” the “complex formation … (EMSA band shift)” value [1] was “forms a complex; also recorded: complexes were present”.

In the case of CC[C@H](C)[C@H](NC(=O)[C@H](CO)NC(=O)[C@H](CCCNC(=N)N)NC(=O)CNC(=O)[C@H](C)NC(=O)[C@H](CCC(=O)O)NC(=O)[C@H](CCCCN)NC(=O)[C@@H](NC(=O)[C@@H](NC(=O)[C@H](C)NC(=O)[C@@H](NC(=O)[C@@H](N)CC(C)C)C(C)C)[C@@H](C)O)C(C)C)C(=O)N[C@@H](Cc1c[nH]cn1)C(=O)N[C@@H](CCC(=O)O)C(=O)N[C@H](C(=O)N1CCC[C@H]1C(=O)N[C@@H](CCCNC(=N)N)C(=O)O)[C@@H](C)CC [SMRT^1414-1430, lvatvkeagrsiheipr] (H-LVATVKEAGRSIHEIPR-OH), the “stoicheometry of the interaction by ITC” value [3] is reported as 1.11 ±0.06 SMRT peptides per BCL6 chain, the “enthalpic contribution ΔH” value ([3]; ITC) is reported as -23.2 ± 1.6 kcal/mol and the “entropic contribution −TΔS” value ([3]; ITC) is reported as 16.4±2.3. The “binding to H116A mutant BCL6 BTB domain” value [4] was “does not bind”, the “binding to N21K mutant BCL6 BTB domain” value [5] was “does not bind” and the “relative binding affinity by SPR” value [2] was “stronger binding”.

“RSEIISTAPWSSVVPGP [BCoR peptide with S507W / W509S double mutation]” was tested, and the “complex formation … (EMSA band shift)” value [1] was “did not result in a shift”.

With “BCoR 502-522: thioredoxin-6his fusion protein with BCoR residues 502-522 (ISTAPSSWVVPGPSPNEENNG; also: thioredoxin-6His fusion protein)” the “complex formation … (EMSA band shift)” value [1] was “complexes were present”.

For “Trx-(SMRT-BBD): His-tagged thioredoxin fusion protein of the SMRT-BBD (LVATVKEAGRSIHEIPR; also: His-tagged thioredoxin fusion protein)”, the “binding to H116A mutant BCL6 BTB domain” value [4] was “significantly reduced affinity” and the “binding to N21K mutant BCL6 BTB domain” value [5] was “no binding at all”.

B1: BCoR 112 to 342: hexahistidine tagged fusion protein containing residues 112 to 342 of BCoR (protein, UniProt Q6W2J9 112-342, looked up, fragment)
chain: LGFSSERNPEMQFKPNTPETVEASAVSGKPPNGFSAIYKTPPGIQKSAVATAEALGLDRPASDKQSPLNINGASYLRLPWVNPYMEGATPAIYPFLDSPNKYSLNMYKALLPQQSYSLAQPLYSPVCTNGERFLYLPPPHYVGPHIPSSLASPMRLSTPSASPAIPPLVHCADKSLPWKMGVSPGNPVDSHAYPHIQNSKQPRVPSAKAVTSGLPGDTALLLPPSPRPSPR
modifications: hexahistidine tag
notes: hexahistidine tagged fusion protein containing residues 112 to 342 of BCoR
B1 was tested, and the “binding to BCL6 BTB domain in co-purification assay” value (“binding to BCL6 BTB domain” below) [6] was “did not”.

B2: BCoR 542 to 753: hexahistidine tagged fusion protein containing residues 542 to 753 of BCoR (protein, UniProt Q6W2J9 542-753, looked up, fragment)
chain: SSCPRMGGTDAVITNVSGSVSSAGRPASASPAPNANADGTKTSRSSVETTPSVIQHVGQPPATPAKHSSSTSSKGAKASNPEPSFKANENGLPPSSIFLSPNEAFRSPPIPYPRSYLPYPAPEGIAVSPLSLHGKGPVYPHPVLLPNGSLFPGHLAPKPGLPYGLPTGRPEFVTYQDALGLGMVHPMLIPHTPIEITKEEKPERRSRSHERA
modifications: hexahistidine tag
notes: hexahistidine tagged fusion protein containing residues 542 to 753 of BCoR
For B2, the “binding to BCL6 BTB domain” value [6] was “did not”.

B3: BCoR fragment 317-547: hexahistidine tagged fusion protein containing residues 317 to 547 of BCoR (protein)
chain: SAKAVTSGLPGDTALLLPPSPRPSPRVHLPTQPAADTYSEFHKHYARISTSPSVALSKPYMTVSSEFPAARLSNGKYPKAPEGGEGAQPVPGHARKTAVQDRKDGSSPPLLEKQTVTKDVTDKPLDLSSKVVDVDASKADHMKKMAPTVLVHSRAGSGLVLSGSEIPKETLSPPGNGCAIYRSEIISTAPSSWVVPGPSPNEENNGKSMSLKNKALDWAIPQQRSSSCPRM
modifications: left off: large carriers
notes: hexahistidine tagged fusion protein containing residues 317 to 547 of BCoR
With B3 the “binding to H116A mutant BCL6 BTB domain” value [4] was “did not bind”, the “binding to N21K mutant BCL6 BTB domain” value [5] was “did not bind” and the “binding to BCL6 BTB domain” value [6] was “bound directly”.
